Experimental data from the Immune Epitope Database (IEDB).

Assays:
HLA-A*01:01 = assay: IEDB peptide-MHC binding, purified MHC/direct/fluorescence; filed as Kd, often an IC50 or EC50 that approximates it; ≥ and ≤ were set here for values at or beyond the usual limits of such assays
HLA-A*02:01 = assay: as above
HLA-A*03:01 = assay: as above
HLA-A*11:01 = assay: as above
HLA-A*26:01 = assay: as above
HLA-A*31:01 = assay: as above
HLA-A*69:01 = assay: as above
HLA-B*07:02 = assay: as above
HLA-B*08:01 = assay: as above; conditions: source organism: Haemophilus influenzae
HLA-B*15:01 = assay: as above
HLA-B*27:05 = assay: as above
HLA-B*35:01 = assay: as above
HLA-B*44:02 = assay: as above; conditions: source organism: Haemophilus influenzae
HLA-B*58:01 [1] = assay: as above
HLA-C*12:03 = assay: as above; conditions: source organism: Yersinia pestis Nepal516
HLA-A*68:02 = assay: as above
HLA-B*08:03 = assay: as above
HLA-B*15:17 = assay: as above
HLA-B*18:01 = assay: as above
HLA-B*40:01 = assay: as above; conditions: source organism: Giardia intestinalis
HLA-B*46:01 = assay: as above
HLA-B*48:01 = assay: as above; conditions: source organism: Giardia intestinalis
HLA-B*57:01 [2] = assay: as above
HLA-B*57:01 [3] = assay: IEDB peptide-MHC binding, purified MHC/competitive/radioactivity; filed as Kd, often an IC50 or EC50 that approximates it; ≥ and ≤ were set here for values at or beyond the usual limits of such assays
HLA-B*58:01 [4] = assay: as above
HLA-A*24:03 = assay: IEDB peptide-MHC binding, purified MHC/direct/fluorescence; filed as Kd, often an IC50 or EC50 that approximates it; ≥ and ≤ were set here for values at or beyond the usual limits of such assays
HLA-A*29:02 = assay: as above; conditions: source organism: Giardia lamblia ATCC 50803
HLA-B*27:03 = assay: as above
HLA-B*39:01 = assay: as above
HLA-B*51:01 = assay: as above
HLA-A*02:03 = assay: as above
HLA-A*02:11 = assay: as above
HLA-A*02:12 = assay: as above
HLA-A*02:16 = assay: as above; conditions: source organism: Vibrio vulnificus CMCP6
HLA-A*02:19 = assay: as above
HLA-B*08:02 = assay: as above; conditions: source organism: Francisella tularensis subsp. tularensis FSC033
HLA-B*15:09 = assay: as above; conditions: source organism: Francisella tularensis subsp. tularensis FSC033
HLA-A*02:06 = assay: IEDB peptide-MHC binding, purified MHC/competitive/fluorescence; filed as Kd, often an IC50 or EC50 that approximates it; ≥ and ≤ were set here for values at or beyond the usual limits of such assays; conditions: source organism: Francisella tularensis subsp. tularensis FSC198
[5] = source organism: Vibrio vulnificus
[6] = source organism: Haemophilus influenzae
[7] = source organism: Giardia intestinalis
[8] = source organism: Giardia lamblia ATCC 50803
[9] = source organism: Dengue virus 3 Martinique/1243/1999
[10] = source organism: Dengue virus 2 Jamaica/1409/1983
[11] = source organism: Dengue virus 4 Philippines/H241/1956
[12] = source organism: Vibrio vulnificus CMCP6
[13] = source organism: Francisella tularensis subsp. tularensis
[14] = source organism: Campylobacter jejuni

Work on IMDEPTSSL yielded a Kd (HLA-A*01:01; [5]) of 14.3 µM, a Kd (HLA-A*02:01; [5]) of 0.0267 µM and a Kd (HLA-A*03:01; [6]) of no less than 20 µM. The Kd (HLA-A*11:01; [6]) was no less than 20 µM, the Kd (HLA-A*26:01; [6]) was no less than 20 µM and the Kd (HLA-A*31:01; [6]) was no less than 20 µM. The Kd (HLA-A*69:01; [5]) was 0.0649 µM, the Kd (HLA-B*07:02; [5]) was no less than 5 µM and the Kd (HLA-B*08:01) was no less than 20 µM. It also gave a Kd (HLA-B*15:01; [5]) of 0.173 µM, a Kd (HLA-B*27:05; [6]) of no less than 20 µM and a Kd (HLA-B*35:01; [5]) of 2.07 µM. For the same sequence, the Kd (HLA-B*44:02) was no less than 20 µM, the Kd (HLA-B*58:01 [1]; [6]) was no less than 20 µM and the Kd (HLA-C*12:03) was no less than 20 µM.

For INTLESMMK, the Kd (HLA-A*01:01; [7]) was no less than 20 µM, the Kd (HLA-A*02:01; [7]) was no less than 20 µM and the Kd (HLA-A*03:01; [7]) was no less than 20 µM. It also gave a Kd (HLA-A*11:01; [7]) of 12 µM, a Kd (HLA-A*31:01; [7]) of no less than 20 µM and a Kd (HLA-A*68:02; [7]) of no less than 20 µM. For the same sequence, the Kd (HLA-B*07:02; [7]) was no less than 20 µM, the Kd (HLA-B*08:03; [8]) was no less than 20 µM and the Kd (HLA-B*15:01; [7]) was no less than 20 µM. The Kd (HLA-B*15:17; [7]) was no less than 20 µM, the Kd (HLA-B*18:01; [7]) was no less than 20 µM and the Kd (HLA-B*27:05; [7]) was no less than 20 µM. For the same sequence, the Kd (HLA-B*40:01) was no less than 20 µM, the Kd (HLA-B*46:01; [7]) was no less than 20 µM and the Kd (HLA-B*48:01) was no less than 20 µM. It also gave a Kd (HLA-B*57:01 [2]; [7]) of no less than 20 µM and a Kd (HLA-B*58:01 [1]; [7]) of no less than 20 µM.

KAWMVHRQW gave a Kd (HLA-B*57:01 [3]; [9]) of 0.00127 µM and a Kd (HLA-B*58:01 [4]; [9]) of 0.00108 µM.

For KTRANDWDF, the Kd (HLA-B*57:01 [3]; [10]) was 0.0221 µM.

Work on LLIQGLKTV yielded a Kd (HLA-A*02:01; [8]) of 0.002 µM, a Kd (HLA-A*03:01; [8]) of no less than 20 µM and a Kd (HLA-A*24:03; [8]) of no less than 20 µM. For the same sequence, the Kd (HLA-A*26:01; [8]) was no less than 20 µM, the Kd (HLA-A*29:02) was no less than 20 µM and the Kd (HLA-B*15:17; [8]) was no less than 20 µM. It also gave a Kd (HLA-B*18:01; [8]) of no less than 20 µM, a Kd (HLA-B*27:03; [8]) of no less than 20 µM and a Kd (HLA-B*39:01; [8]) of no less than 20 µM. For the same sequence, the Kd (HLA-B*46:01; [8]) was no less than 20 µM, the Kd (HLA-B*51:01; [8]) was no less than 20 µM and the Kd (HLA-B*57:01 [2]; [8]) was no less than 20 µM.

Sequence LSSRATWAKN has a Kd (HLA-B*57:01 [3]; [11]) of 1.88 µM and a Kd (HLA-B*58:01 [4]; [11]) of 0.156 µM.

For MPIAAAIGT, the Kd (HLA-A*02:01; [12]) was no less than 20 µM, the Kd (HLA-A*02:03; [12]) was no less than 20 µM and the Kd (HLA-A*02:11; [12]) was no less than 20 µM. For the same sequence, the Kd (HLA-A*02:12; [12]) was no less than 20 µM, the Kd (HLA-A*02:16) was no less than 20 µM and the Kd (HLA-A*02:19; [12]) was no less than 20 µM. The Kd (HLA-A*03:01; [12]) was no less than 20 µM, the Kd (HLA-A*24:03; [12]) was no less than 20 µM and the Kd (HLA-A*26:01; [12]) was no less than 20 µM. It also gave a Kd (HLA-B*07:02; [12]) of 1 µM, a Kd (HLA-B*15:01; [12]) of no less than 20 µM and a Kd (HLA-B*18:01; [12]) of no less than 20 µM. It also gave a Kd (HLA-B*27:03; [12]) of no less than 20 µM, a Kd (HLA-B*35:01; [12]) of 0.003 µM and a Kd (HLA-B*46:01; [12]) of no less than 20 µM. For the same sequence, the Kd (HLA-B*57:01 [2]; [12]) was no less than 20 µM.

Sequence PPPPLQHPI has a Kd (HLA-A*03:01; [8]) of no less than 20 µM, a Kd (HLA-A*24:03; [8]) of no less than 20 µM and a Kd (HLA-A*26:01; [8]) of no less than 20 µM. For the same sequence, the Kd (HLA-B*15:01; [8]) was no less than 20 µM, the Kd (HLA-B*15:17; [8]) was no less than 20 µM and the Kd (HLA-B*18:01; [8]) was no less than 20 µM. The Kd (HLA-B*27:03; [8]) was no less than 20 µM, the Kd (HLA-B*39:01; [8]) was no less than 20 µM and the Kd (HLA-B*46:01; [8]) was no less than 20 µM. It also gave a Kd (HLA-B*51:01; [8]) of no less than 5 µM and a Kd (HLA-B*57:01 [2]; [8]) of no less than 20 µM.

RYSNFAWYF showed a Kd (HLA-A*01:01; [13]) of no less than 20 µM, a Kd (HLA-A*02:01; [13]) of no less than 20 µM and a Kd (HLA-A*11:01; [13]) of no less than 20 µM. It also gave a Kd (HLA-A*24:03; [13]) of 0.365 µM, a Kd (HLA-A*68:02; [13]) of no less than 20 µM and a Kd (HLA-A*69:01; [13]) of no less than 20 µM. The Kd (HLA-B*07:02; [13]) was no less than 20 µM, the Kd (HLA-B*08:02) was no less than 20 µM and the Kd (HLA-B*08:03; source organism: Francisella tularensis subsp. tularensis FSC033) was no less than 20 µM. The Kd (HLA-B*15:01; [13]) was no less than 20 µM, the Kd (HLA-B*15:09) was no less than 20 µM and the Kd (HLA-B*15:17; [13]) was no less than 20 µM. It also gave a Kd (HLA-B*18:01; [13]) of no less than 20 µM, a Kd (HLA-B*57:01 [2]; [13]) of no less than 20 µM and a Kd (HLA-B*58:01 [1]; [13]) of no less than 20 µM. For the same sequence, the Kd (HLA-A*02:06) was no less than 20 µM.

For SFWFFHPPY, the Kd (HLA-A*02:03; [14]) was no less than 20 µM, the Kd (HLA-A*02:11; [14]) was no less than 20 µM and the Kd (HLA-A*02:12; [14]) was no less than 20 µM. The Kd (HLA-A*02:19; [14]) was no less than 20 µM, the Kd (HLA-A*03:01; [14]) was no less than 20 µM and the Kd (HLA-A*26:01; [14]) was no less than 20 µM. It also gave a Kd (HLA-A*68:02; [14]) of no less than 20 µM, a Kd (HLA-A*69:01; [14]) of no less than 20 µM and a Kd (HLA-B*07:02; [14]) of no less than 20 µM. The Kd (HLA-B*15:01; [14]) was 4.99 µM, the Kd (HLA-B*27:03; [14]) was no less than 20 µM and the Kd (HLA-B*35:01; [14]) was 0.351 µM. It also gave a Kd (HLA-B*39:01; [14]) of no less than 20 µM, a Kd (HLA-B*46:01; [14]) of no less than 20 µM and a Kd (HLA-B*51:01; [14]) of no less than 20 µM. For the same sequence, the Kd (HLA-B*57:01 [2]; [14]) was no less than 20 µM.

TASGINMCTL gave a Kd (HLA-B*57:01 [3]; [9]) of 5.59 µM and a Kd (HLA-B*58:01 [4]; [9]) of 0.103 µM.

With TTEDMLAVW the Kd (HLA-B*57:01 [3]; [10]) was 0.0301 µM.
